Here are results for 2 molecules from paper PMC7033311, “The Eaf3 chromodomain acts as a pH sensor for gene expression by altering its binding affinity for histone methylated-lysine residues” (Bioscience Reports, 2020).

Common to all, as to details: both partners purified
Assay [1] deals with T1, Eaf3 chromodomain (Eaf3 CD, residues 1-120), wild type (S. cerevisiae, UniProt Q12432 1-120).
T1 construct: Eaf3 chromodomain (CD), budding yeast (S. cerevisiae), residues 1-120; 15N-labelled for the NMR experiments; expressed from pET15b; also called WT Eaf3 CD; source: E. coli BL21(DE3)pLysS, purified (Ni-NTA, thrombin, Ni-NTA flow-through, Superdex75)
T1 sequence (looked up): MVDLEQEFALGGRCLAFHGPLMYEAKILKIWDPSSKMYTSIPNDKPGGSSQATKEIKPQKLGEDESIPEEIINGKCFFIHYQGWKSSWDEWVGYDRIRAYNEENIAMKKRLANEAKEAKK
The assay can be described thus: NMR titration; 0.1 mM 15N-labelled WT or mutant Eaf3 CD titrated with unlabelled histone H3 peptide up to 1:88; 10 mM potassium phosphate pH 6.8, 20 mM NaCl, 5 mM DTT, 25°C; Kd by nonlinear fit of chemical shift change.

Assay [2] has as its target T2, Eaf3 CD (residues 1-120) Q82A (S. cerevisiae, UniProt Q12432 1-120, Q82A).
T2 construct: Eaf3 chromodomain (CD), budding yeast (S. cerevisiae), residues 1-120, Q82A; 15N-labelled for the NMR experiments; source: E. coli BL21(DE3)pLysS, purified (Ni-NTA, thrombin, Ni-NTA flow-through, Superdex75)
T2 sequence (looked up): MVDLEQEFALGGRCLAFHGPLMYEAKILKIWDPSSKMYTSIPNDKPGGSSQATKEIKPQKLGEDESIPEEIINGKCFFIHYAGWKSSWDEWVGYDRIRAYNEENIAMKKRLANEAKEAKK
Described as above.

For assay [3], the target named is T3, Eaf3 CD (residues 1-120) W84Y (S. cerevisiae, UniProt Q12432 1-120, W84Y).
T3 construct: Eaf3 chromodomain (CD), budding yeast (S. cerevisiae), residues 1-120, W84Y; 15N-labelled for the NMR experiments; source: E. coli BL21(DE3)pLysS, purified (Ni-NTA, thrombin, Ni-NTA flow-through, Superdex75)
T3 sequence (looked up): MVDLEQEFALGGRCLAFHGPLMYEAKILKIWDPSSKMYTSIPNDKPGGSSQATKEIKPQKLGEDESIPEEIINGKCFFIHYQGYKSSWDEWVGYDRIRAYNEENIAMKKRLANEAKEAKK
Described as above.

In assay [4] the target is T4, Eaf3 CD (residues 1-120) G19A (S. cerevisiae, UniProt Q12432 1-120, G19A).
T4 construct: Eaf3 chromodomain (CD), budding yeast (S. cerevisiae), residues 1-120, G19A; 15N-labelled for the NMR experiments; source: E. coli BL21(DE3)pLysS, purified (Ni-NTA, thrombin, Ni-NTA flow-through, Superdex75)
T4 sequence (looked up): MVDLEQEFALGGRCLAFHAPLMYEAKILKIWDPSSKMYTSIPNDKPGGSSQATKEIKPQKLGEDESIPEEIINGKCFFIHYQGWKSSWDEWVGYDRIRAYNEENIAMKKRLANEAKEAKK
Described as above.

Assay [5] has as its target T5, Eaf3 CD (residues 1-120) H18D (S. cerevisiae, UniProt Q12432 1-120, H18D).
T5 construct: Eaf3 chromodomain (CD), budding yeast (S. cerevisiae), residues 1-120, H18D; 15N-labelled for the NMR experiments; also called H18D Eaf3 CD; source: E. coli BL21(DE3)pLysS, purified (Ni-NTA, thrombin, Ni-NTA flow-through, Superdex75)
T5 sequence (looked up): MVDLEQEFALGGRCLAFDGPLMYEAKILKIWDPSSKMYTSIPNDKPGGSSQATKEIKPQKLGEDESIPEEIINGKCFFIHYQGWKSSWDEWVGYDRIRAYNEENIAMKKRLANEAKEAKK
The assay can be described thus: paramagnetic relaxation enhancement (NMR); MTSL-H3K36me3 peptide added to 0.3 mM 15N-labelled Eaf3 CD at 1:1; 10 mM potassium phosphate pH 6.8, 20 mM NaCl; paramagnetic against ascorbate-reduced sample.

Assay [6] addresses T1, Eaf3 chromodomain (Eaf3 CD, residues …). The assay is described as above.

Where no end group is shown, it is not given here. [ ]: non-standard residue; d: D form. The star is where a group is joined. MTSL = spin label, CC1(C)C=C(CS*)C(C)(C)N1[O]; Lys(Me3) = C[N+](C)(C)CCCC[C@H](N)C(=O)O

Take ART[Lys(Me3)]QTARKSTGGKAPRY [histone H3 peptide H3K4me3, titration peptide]: the dissociation constant (Kd) (usually the concentration at which binding is half-saturated) in assay [1] was 2900 ± 10 µM; in assay [2] it was 2240 ± 280 µM; in assay [3], 1590 ± 280 µM; in assay [4], 800 ± 70 µM.

B1: MTSL spin-labelled H3K36me3 peptide (residues 32-41) with a Gly33Cys substitution (peptide, UniProt P61830 33-42, looked up)
peptide: TC(MTSL)GVK(me3)KPHRY
notes: histone H3 residues 32-41 with Gly33Cys; also called MTSL-H3K36me3 peptide; paramagnetically labeled H3K36me3 peptide; source: synthetic peptide (SIGMA Genosys), labelled with MTSL
As to B1, the binding result in assay [5] and in assay [6] was “binds” throughout.
